Results taken from patent publication US20170306033A1 (Amgen, published 2017).

T1: human PAC1 receptor (human, UniProt P41586 21-468)
T1 sequence: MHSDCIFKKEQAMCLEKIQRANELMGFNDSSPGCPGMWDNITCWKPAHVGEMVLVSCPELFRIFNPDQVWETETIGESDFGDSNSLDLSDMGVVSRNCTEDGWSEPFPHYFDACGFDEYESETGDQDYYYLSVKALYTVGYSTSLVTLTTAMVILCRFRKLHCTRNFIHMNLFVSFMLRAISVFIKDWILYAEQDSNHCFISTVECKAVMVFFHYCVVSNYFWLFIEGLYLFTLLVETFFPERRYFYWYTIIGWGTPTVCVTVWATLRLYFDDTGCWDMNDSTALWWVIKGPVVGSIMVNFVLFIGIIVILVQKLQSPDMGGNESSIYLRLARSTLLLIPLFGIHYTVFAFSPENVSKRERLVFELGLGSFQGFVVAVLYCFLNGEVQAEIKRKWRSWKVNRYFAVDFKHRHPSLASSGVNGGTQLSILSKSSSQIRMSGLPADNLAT


How the values were obtained:
[1] = biological target: T1, human PAC1 receptor; assay: cell-based or functional assay
[2] = biological target: human CGRP receptor (human, UniProt Q16602 23-461; O60894 27-148); assay: cell-based or functional assay
human CGRP receptor, sequence (Q16602 23-461 limits assumed, chain 1 of 2): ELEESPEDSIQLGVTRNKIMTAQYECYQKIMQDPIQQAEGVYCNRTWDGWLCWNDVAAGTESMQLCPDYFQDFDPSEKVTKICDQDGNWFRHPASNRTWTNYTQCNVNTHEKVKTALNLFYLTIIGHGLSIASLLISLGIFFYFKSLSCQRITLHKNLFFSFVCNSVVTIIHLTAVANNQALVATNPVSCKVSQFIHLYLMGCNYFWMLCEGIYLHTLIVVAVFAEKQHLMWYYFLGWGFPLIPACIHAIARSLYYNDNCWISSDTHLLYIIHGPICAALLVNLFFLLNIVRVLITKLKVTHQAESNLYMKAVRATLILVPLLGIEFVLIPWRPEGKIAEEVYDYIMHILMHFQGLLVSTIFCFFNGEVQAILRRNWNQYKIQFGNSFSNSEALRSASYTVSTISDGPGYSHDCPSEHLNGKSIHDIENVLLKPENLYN
human CGRP receptor, sequence (O60894 27-148 limits assumed, chain 2 of 2): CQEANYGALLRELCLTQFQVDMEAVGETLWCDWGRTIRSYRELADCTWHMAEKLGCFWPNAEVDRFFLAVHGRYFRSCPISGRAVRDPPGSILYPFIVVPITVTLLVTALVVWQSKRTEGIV

Binder | % inhibition of human PAC1 [1] [%] | % inhibition of human CGRPR [2] [%]
iPS:327725 (bispecific antibody, human IgG1, kappa, lambda, N297G) light 1: DIQLTQSPSFLSASVGDRVTITCRASQSIGRSLHWYQQKPGKAPKLLIKYASQSLSGVPSRFSGSGSGTEFTLTISSLQPEDFATYYCHQSSRLPFTFGEGTKVDIKRTVAAPSVFIFPPSDEQLKSGTASVVCLLNNFYPREAKVQWKVDNALQSGNSQESVTEQDSKDSTYSLESTLTLSKADYEKHKVYACEVTHQGLSSPVTKSFNRGEC heavy 1: not shown light 2: QSVLTQPPSVSAAPGQKVTISCSGSSSNIGNNYVSWYQQLPGTAPKLLIYDNNKRPSGIPDRFSGSKSGTSATLAITGLQTGDEADYYCGTWDSRLSAVVFGKGTKLTVLGQPKANPTVTLFPPSSEELQANKATLVCLISDFYPGAVTVAWKADGSPVKAGVETTKPSKQSNNKYAAKSYLSLTPEQWKSHRSYSCQVTHEGSTVEKTVAPTECS heavy 2: QVQLVESGGGVVQPGRSLRLSCAASGFTFSSFGMHWVRQAPGKELEWVAVISFDGSIKYSVDSVKGRFTISRDNSKNTLFLQMNSLRAEDTAVYYCARDRLNYYDSSGYYHYKYYGMAVWGQGTTVTVSSASTKGPSVFPLAPSSKSTSGGTAALGCLVKDYFPEPVTVSWNSGALTSGVHTFPAVLQSSGLYSLESVVTVPSSSLGTQTYICNVNHKPSNTKVDKKVEPKSCDKTHTCPPCPAPELLGGPSVFLFPPKPKDTLMISRTPEVTCVVVDVSHEDPEVKFNWYVDGVEVHNAKTKPCEEQYGSTYRCVSVLTVLHQDWLNGKEYKCKVSNKALPAPIEKTISKAKGQPREPQVYTLPPSRKEMTKNQVSLTCLVKGFYPSDIAVEWESNGQPENNYKTTPPVLKSDGSFFLYSKLTVDKSRWQQGNVFSCSVMHEALHNHYTQKSLSLSPGK | 39 | 86
iPS:326663 (bispecific antibody, human IgG2, kappa) light 1: DIQLTQSPSFLSASVGDRVTITCRASQSIGRSLHWYQQKPGKAPKLLIKYASQSLSGVPSRFSGSGSGTEFTLTISSLQPEDFATYYCHQSSRLPFTFGPGTKVDIKRTVAAPSVFIFPPSDEQLKSGTASVVCLLNNFYPREAKVQWKVDNALQSGNSQESVTEQDSKDSTYSLESTLTLSKADYEKHKVYACEVTHQGLSSPVTKSFNRGEC heavy 1: QVQLVESGAEVVKPGASVKVSCKASGFTFSRFAMHWVRQAPGQGLEWMGVISYDGGNKYYAESVKGRVTMTRDTSTSTLYMELSSLRSEDTAVYYCARGYDVLTGYPDYWGQGTLVTVSSASTKGPSVFPLAPCSRSTSESTAALGCLVKDYFPEPVTVSWNSGALTSGVHTFPAVLQSSGLYSLKSVVTVPSSNFGTQTYTCNVDHKPSNTKVDKTVERKCCVECPPCPAPPVAGPSVFLFPPKPKDTLMISRTPEVTCVVVDVSHEDPEVQFNWYVDGVEVHNAKTKPREEQFNSTFRVVSVLTVVHQDWLNGKEYKCKVSNKGLPAPIEKTISKTKGQPREPQVYTLPPSREEMTKNQVSLTCLVDGFYPSDIAVEWESNGQPENNYDTTPPMLDSDGSFFLYSDLTVDKSRWQQGNVFSCSVMHEALHNHYTQKSLSLSPGK light 2: EIVLTQSPGTLSLSPGERATLSCRASQSVSSGYLTWYQQKPGQAPRLLIYGASSRATGIPDRFSGSGSGTDFTLTISRLEPEDFAVYYCQQYGNSLSRFGQGTKLEIKRTVAAPSVFIFPPSDEQLKSGTASVVCLLNNFYPREAKVQWKVDNALQSGNSQESVTEQDSKDSTYSLKSTLTLSKADYEKHKVYACEVTHQGLSSPVTKSFNRGEC heavy 2: QVQLVESGGGVVQPGRSLRLSCAASGFTFSSYGMHWVRQAPGKGLEWVAVIWYDGSNKYYADSVKGRFIISRDKSKNTLYLQMNSLRAEDTAVYYCARAGGIAAAGLYYYYGMDVWGQGTTVTVSSASTKGPSVFPLAPCSRSTSESTAALGCLVKDYFPEPVTVSWNSGALTSGVHTFPAVLQSSGLYSLESVVTVPSSNFGTQTYTCNVDHKPSNTKVDKTVERKCCVECPPCPAPPVAGPSVFLFPPKPKDTLMISRTPEVTCVVVDVSHEDPEVQFNWYVDGVEVHNAKTKPREEQFNSTFRVVSVLTVVHQDWLNGKEYKCKVSNKGLPAPIEKTISKTKGQPREPQVYTLPPSRKKMTKNQVSLTCLVKGFYPSDIAVEWESNGQPENNYKTTPPMLKSDGSFFLYSKLTVDKSRWQQGNVFSCSVMHEALHNHYTQKSLSLSPGK | 62 | 64
iPS:327736 (bispecific antibody, human IgG1, kappa, lambda, N297G) light 1: not shown heavy 1: not shown light 2: QSVLTQPPSVSAAPGQKVTISCSGSSSNIGNNYVSWYQQLPGTAPKLLIYDNNKRPSGIPDRFSGSKSGTSATLGITGLQTGDEADYYCGTWDSRLSAVVFGKGTKLTVLGQPKANPTVTLFPPSSEELQANKATLVCLISDFYPGAVTVAWKADGSPVKAGVETTKPSKQSNNKYAAKSYLSLTPEQWKSHRSYSCQVTHEGSTVEKTVAPTECS heavy 2: QVQLVESGGGVVQPGRSLRLSCAASGFTFSSFGMHWVRQAPGKELEWVAVISFDGSIKYSVDSVKGRFTISRDNSKNTLFLQMNSLRAEDTAVYYCARDRLNYYESSGYYHYKYYGMAVWGQGTTVTVSSASTKGPSVFPLAPSSKSTSGGTAALGCLVKDYFPEPVTVSWNSGALTSGVHTFPAVLQSSGLYSLESVVTVPSSSLGTQTYICNVNHKPSNTKVDKKVEPKSCDKTHTCPPCPAPELLGGPSVFLFPPKPKDTLMISRTPEVTCVVVDVSHEDPEVKFNWYVDGVEVHNAKTKPCEEQYGSTYRCVSVLTVLHQDWLNGKEYKCKVSNKALPAPIEKTISKAKGQPREPQVYTLPPSRKEMTKNQVSLTCLVKGFYPSDIAVEWESNGQPENNYKTTPPVLKSDGSFFLYSKLTVDKSRWQQGNVFSCSVMHEALHNHYTQKSLSLSPGK | 20 | 88
iPS:327726 (bispecific antibody, human IgG1, kappa, lambda, N297G) light 1: EIVLTQSPATLSLSPGERATLSCRASQSVGRSLHWYQQKPGQAPRLLIKYASQSLSGIPARFSGSGSGTDFTLTISSLEPEDFAVYYCHQSSRLPFTFGEGTKVDIKRTVAAPSVFIFPPSDEQLKSGTASVVCLLNNFYPREAKVQWKVDNALQSGNSQESVTEQDSKDSTYSLESTLTLSKADYEKHKVYACEVTHQGLSSPVTKSFNRGEC heavy 1: not shown light 2: QSVLTQPPSVSAAPGQKVTISCSGSSSNIGNNYVSWYQQLPGTAPKLLIYDNNKRPSGIPDRFSGSKSGTSATLAITGLQTGDEADYYCGTWDSRLSAVVFGKGTKLTVLGQPKANPTVTLFPPSSEELQANKATLVCLISDFYPGAVTVAWKADGSPVKAGVETTKPSKQSNNKYAAKSYLSLTPEQWKSHRSYSCQVTHEGSTVEKTVAPTECS heavy 2: QVQLVESGGGVVQPGRSLRLSCAASGFTFSSFGMHWVRQAPGKELEWVAVISFDGSIKYSVDSVKGRFTISRDNSKNTLFLQMNSLRAEDTAVYYCARDRLNYYDSSGYYHYKYYGMAVWGQGTTVTVSSASTKGPSVFPLAPSSKSTSGGTAALGCLVKDYFPEPVTVSWNSGALTSGVHTFPAVLQSSGLYSLESVVTVPSSSLGTQTYICNVNHKPSNTKVDKKVEPKSCDKTHTCPPCPAPELLGGPSVFLFPPKPKDTLMISRTPEVTCVVVDVSHEDPEVKFNWYVDGVEVHNAKTKPCEEQYGSTYRCVSVLTVLHQDWLNGKEYKCKVSNKALPAPIEKTISKAKGQPREPQVYTLPPSRKEMTKNQVSLTCLVKGFYPSDIAVEWESNGQPENNYKTTPPVLKSDGSFFLYSKLTVDKSRWQQGNVFSCSVMHEALHNHYTQKSLSLSPGK | 77 | 91
iPS:327735 (bispecific antibody, human IgG1, kappa, lambda, N297G) light 1: DIQMTQSPSSLSASVGDRITITCRASQSISRYLNWYQQKPGKAPKLLIYAASSLQSGIPSRFSGSGSGTDFTLTINSLQPEDFATYFCQQSYSPPFTFGEGTKVDIKRTVAAPSVFIFPPSDEQLKSGTASVVCLLNNFYPREAKVQWKVDNALQSGNSQESVTEQDSKDSTYSLESTLTLSKADYEKHKVYACEVTHQGLSSPVTKSFNRGEC heavy 1: not shown light 2: QSVLTQPPSVSAAPGQKVTISCSGSSSNIGNNYVSWYQQLPGTAPKLLIYDNNKRPSGIPDRFSGSKSGTSATLGITGLQTGDEADYYCGTWDSRLSAVVFGKGTKLTVLGQPKANPTVTLFPPSSEELQANKATLVCLISDFYPGAVTVAWKADGSPVKAGVETTKPSKQSNNKYAAKSYLSLTPEQWKSHRSYSCQVTHEGSTVEKTVAPTECS heavy 2: QVQLVESGGGVVQPGRSLRLSCAASGFTFSSFGMHWVRQAPGKELEWVAVISFDGSIKYSVDSVKGRFTISRDNSKNTLFLQMNSLRAEDTAVYYCARDRLNYYESSGYYHYKYYGMAVWGQGTTVTVSSASTKGPSVFPLAPSSKSTSGGTAALGCLVKDYFPEPVTVSWNSGALTSGVHTFPAVLQSSGLYSLESVVTVPSSSLGTQTYICNVNHKPSNTKVDKKVEPKSCDKTHTCPPCPAPELLGGPSVFLFPPKPKDTLMISRTPEVTCVVVDVSHEDPEVKFNWYVDGVEVHNAKTKPCEEQYGSTYRCVSVLTVLHQDWLNGKEYKCKVSNKALPAPIEKTISKAKGQPREPQVYTLPPSRKEMTKNQVSLTCLVKGFYPSDIAVEWESNGQPENNYKTTPPVLKSDGSFFLYSKLTVDKSRWQQGNVFSCSVMHEALHNHYTQKSLSLSPGK | 68 | 81
iPS:327727 (bispecific antibody, human IgG1, kappa, lambda, N297G) light 1: not shown heavy 1: not shown light 2: QSVLTQPPSVSAAPGQKVTISCSGSSSNIGNNYVSWYQQLPGTAPKLLIYDNNKRPSGIPDRFSGSKSGTSATLAITGLQTGDEADYYCGTWDSRLSAVVFGGGTKLTVLGQPKANPTVTLFPPSSEELQANKATLVCLISDFYPGAVTVAWKADGSPVKAGVETTKPSKQSNNKYAAKSYLSLTPEQWKSHRSYSCQVTHEGSTVEKTVAPTECS heavy 2: QVQLVESGGGVVQPGRSLRLSCAASGFTFSSFGMHWVRQAPGKGLEWVAVISFDGSIKYSVDSVKGRFTISRDNSKNTLFLQMNSLRAEDTAVYYCARDRLNYYDSSGYYHYKYYGMAVWGQGTTVTVSSASTKGPSVFPLAPSSKSTSGGTAALGCLVKDYFPEPVTVSWNSGALTSGVHTFPAVLQSSGLYSLESVVTVPSSSLGTQTYICNVNHKPSNTKVDKKVEPKSCDKTHTCPPCPAPELLGGPSVFLFPPKPKDTLMISRTPEVTCVVVDVSHEDPEVKFNWYVDGVEVHNAKTKPCEEQYGSTYRCVSVLTVLHQDWLNGKEYKCKVSNKALPAPIEKTISKAKGQPREPQVYTLPPSRKKMTKNQVSLTCLVKGFYPSDIAVEWESNGQPENNYKTTPPVLKSDGSFFLYSKLTVDKSRWQQGNVFSCSVMHEALHNHYTQKSLSLSPGK | 93 | 93
